Measured values reported in IntAct's records for PubMed 24290140.

Target: Fhl1, P97447-2
Sequence (P97447 other isoform, or with tags, fused parts or gaps): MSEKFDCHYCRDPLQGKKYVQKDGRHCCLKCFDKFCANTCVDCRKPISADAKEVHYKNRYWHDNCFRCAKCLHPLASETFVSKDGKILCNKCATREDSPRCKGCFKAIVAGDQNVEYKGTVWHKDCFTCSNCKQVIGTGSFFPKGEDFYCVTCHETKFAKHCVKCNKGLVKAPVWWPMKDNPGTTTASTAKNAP

Chain of Recombining binding protein suppressor of hairless (Mus musculus), P31266 F261R (P31266 whole entry F261R): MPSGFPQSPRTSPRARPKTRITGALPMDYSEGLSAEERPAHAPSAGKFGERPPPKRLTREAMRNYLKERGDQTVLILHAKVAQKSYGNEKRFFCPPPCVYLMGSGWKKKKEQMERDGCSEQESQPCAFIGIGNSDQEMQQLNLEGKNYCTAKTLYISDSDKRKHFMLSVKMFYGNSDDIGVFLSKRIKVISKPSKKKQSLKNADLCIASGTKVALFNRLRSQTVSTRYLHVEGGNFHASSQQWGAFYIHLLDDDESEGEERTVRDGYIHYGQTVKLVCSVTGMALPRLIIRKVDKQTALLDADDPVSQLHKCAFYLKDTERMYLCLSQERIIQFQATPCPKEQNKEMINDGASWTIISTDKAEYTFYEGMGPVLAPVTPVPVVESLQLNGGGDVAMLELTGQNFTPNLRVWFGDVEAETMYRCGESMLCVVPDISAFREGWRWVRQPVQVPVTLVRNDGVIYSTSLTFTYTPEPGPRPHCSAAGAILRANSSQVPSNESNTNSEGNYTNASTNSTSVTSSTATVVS
Chain of Recombining binding protein suppressor of hairless (Mus musculus), P31266 A284R (P31266 whole entry A284R): as the sequence (P31266 whole entry F261R) above, with R261F, A284R counted along it

Substance	effect of a mutation on the interaction
Recombining binding protein suppressor of hairless (Mus musculus), P31266 A284R	decreasing interaction strength
Recombining binding protein suppressor of hairless (Mus musculus), P31266 F261R	decreasing interaction strength
